Test results published in paper PMC10030575, “The IgV domain of the poliovirus receptor alone is immunosuppressive and binds to its receptors with comparable affinity” (Scientific Reports, 2023).
Read-outs that look alike come from different tables or passages of the source.

Key:
Test in all cases: SPR; Biacore T200; His-tagged receptors captured on an anti-histidine antibody CM5 chip (1-5 ug/mL, 30 uL/min); five concentrations (1:2 serial dilutions) of the PVR-Fc constructs flowed over, single-cycle kinetics; HBS-EP (20 mM HEPES pH 7.4, 150 mM NaCl, 0.005% Tween-20, 3.4 mM EDTA); 1:1 Langmuir model
[1] = target: T1, recombinant mouse CD96-his (mouse, UniProt Q3U0X8 22-536)
T1 construct: mouse CD96 (TACTILE), recombinant; also called mCD96-his; mCD96; source: bought: Biolegend (788806)
T1 sequence (looked up): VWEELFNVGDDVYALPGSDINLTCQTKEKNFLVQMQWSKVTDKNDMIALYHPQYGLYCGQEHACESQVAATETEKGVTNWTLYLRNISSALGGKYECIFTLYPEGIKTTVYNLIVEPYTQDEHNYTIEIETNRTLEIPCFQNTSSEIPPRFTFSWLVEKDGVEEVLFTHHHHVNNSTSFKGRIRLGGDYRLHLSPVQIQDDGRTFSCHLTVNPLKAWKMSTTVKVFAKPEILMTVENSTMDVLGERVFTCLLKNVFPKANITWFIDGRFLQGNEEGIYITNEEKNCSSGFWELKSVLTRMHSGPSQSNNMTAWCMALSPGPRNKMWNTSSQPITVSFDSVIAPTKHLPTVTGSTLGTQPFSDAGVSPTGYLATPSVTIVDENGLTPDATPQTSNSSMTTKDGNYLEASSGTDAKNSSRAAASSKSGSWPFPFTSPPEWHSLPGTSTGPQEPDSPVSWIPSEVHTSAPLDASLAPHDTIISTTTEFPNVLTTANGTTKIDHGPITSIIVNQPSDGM

[2] = target: T2, recombinant mouse TIGIT-Fc-his (mouse, UniProt P86176 29-148)
T2 construct: mouse TIGIT (T-cell immunoglobulin and ITIM domain), recombinant; also called mTIGIT-Fc-his; mTIGIT; source: bought: Biolegend (771808)
T2 sequence (looked up): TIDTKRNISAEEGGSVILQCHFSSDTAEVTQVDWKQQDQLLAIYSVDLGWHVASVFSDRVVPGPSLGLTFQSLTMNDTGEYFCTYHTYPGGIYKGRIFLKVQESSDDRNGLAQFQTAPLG

[3] = target: T3, recombinant mouse CD226-his (mouse, UniProt Q8K4F0 19-254)
T3 construct: mouse CD226 (DNAM1), recombinant; also called mCD226-his; mCD226; source: bought: SinoBiological (50232-M08H)
T3 sequence (looked up): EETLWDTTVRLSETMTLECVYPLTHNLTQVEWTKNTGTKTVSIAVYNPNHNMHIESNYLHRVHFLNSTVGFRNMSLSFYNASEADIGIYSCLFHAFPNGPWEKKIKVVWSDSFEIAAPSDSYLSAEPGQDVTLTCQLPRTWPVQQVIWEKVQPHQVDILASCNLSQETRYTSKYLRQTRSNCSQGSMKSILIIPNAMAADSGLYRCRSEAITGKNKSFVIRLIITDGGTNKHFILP

Molecule: full length PVR-Fc (full-length mouse PVR ECD-Fc) (Fc fusion)
- Kd [1]: 4.07 nM
- koff [1]: 0.00455 s⁻¹
- kon [1]: 1.17e+06 M⁻¹ s⁻¹
- Kd [2]: 2.26 nM
- kon [2]: 2.25e+07 M⁻¹ s⁻¹
- Kd [3]: 0.83 nM
- koff [3]: 0.00651 s⁻¹
- kon [3]: 3.2e+06 M⁻¹ s⁻¹

B1: vdPVR-Fc (IgV-domain PVR-Fc) (Fc fusion, mouse, UniProt Q8K094 29-147, looked up)
chain: DIRVLVPYNSTGVLGGSTTLHCSLTSNENVTITQITWMKKDSGGSHALVAVFHPKKGPNIKEPERVKFLAAQQDLRNASLAISNLSVEDEGIYECQIATFPRGSRSTNAWLKVQARPKN
notes: murine PVR (poliovirus receptor, CD155), IgV domain of the extracellular domain, residues 29-147 of NP_081790.1; An Ig-kappa leader at the 5' end drives secretion; Migrates as a dimer (~94 kDa) without reducing agent; also called minimal murine PVR-Fc fusion construct; source: Expi293F cells, secreted, purified (protein A); not shown: Fc (human IgG1; P01857 residues 100-330; joined by linker …)
- Kd ([1]; both partners purified): 1.72 nM
- koff ([1]; both partners purified): 0.00286 s⁻¹
- kon ([1]; both partners purified): 3.52e+06 M⁻¹ s⁻¹
- Kd ([2]; both partners purified): 2.25 nM
- koff ([2]; both partners purified): 0.0656 s⁻¹
- kon ([2]; both partners purified): 2.92e+07 M⁻¹ s⁻¹
- Kd ([3]; both partners purified): 0.69 nM
- koff ([3]; both partners purified): 0.00184 s⁻¹
- kon ([3]; both partners purified): 2.67e+06 M⁻¹ s⁻¹
